Consider six molecules from patent WO2007042289A2 (dated 2007).

Test [1] deals with T1, purified EGFR (Sigma) (human, UniProt P00533 25-1210, limits assumed).
T1 construct: Bought; purified from human A431 cells; also called solid phase coated EGFR

The target of test [2] is T2, recombinant human IGF-IR (rhIGFIR) (human, UniProt P08069 31-932, limits assumed).
T2 construct: Bought; also called immobilized IGF-IR
Put plainly: SPR (BIAcore), immobilized IGF-IR. (Surface plasmon resonance follows binding to a sensor surface in real time, without labels.)

Test [3] concerns the target T3, EGFR expressed on cells and on A431 derived membrane vesicles (human, UniProt P00533 25-1210).
T3 construct: whole, on cells; Used for assays on whole cells and on immobilised A431 membrane vesicles; also called EGF receptor; EGFR harboring A431 vesicles

B1: PMP38G7 (VHH)
VHH: EVQLVESGGGLVQAGGSLRLSCAASGRTFSSYVMGWFRQATGKEREFVATIAWDSGSTYYADSVKGRFTISRDNAKNTVHLQMNSLKPEDTAVYYCAASYNVYYNNYYYPISRDEYDYWGQGTQVTVSS
notes: also called Nanobody family VIII
In the case of B1, the koff (commonly the first-order rate constant of dissociation) in test [1] was not above 0.0017 s⁻¹.

B2: PMP7A5 (VHH)
VHH: EVQLVESGGGLVQAGGSLRLSCAASDRTFSSNNMGWFRQAPGKEREFVAAIGWGGLETHYSDSVKGRFTISRDNAKNTVYLQMNSLKPEDTARYYCAVSSTRTVIYTLPRMYNYWGQGTQVTVSS
notes: Anti-EGFR Nanobody; tag not described; also called EGFRPMP7A5
Regarding B2, the koff in test [1] was not above 0.0017 s⁻¹.

B3: PMP1C7 (VHH)
VHH: QVKLEESGGGLVQAGGSLRLSCVASGRTFSRTAMAWFRQAPGKEREFVATITWNSGTTRYADSVKGRFFISKDSAKNTIYLEMNSLEPEDTAVYYCAATAAAVITPTRGYYNYWGQGTQVTVSS
notes: Anti-IGF-IR Nanobody; tag not described; also called IGFRPMP1C7
Take B3: in test [2], the koff worked out at 0.0019 s⁻¹.

B4: PMP9C1 (VHH)
VHH: EVQLVESGGGLVQAGGSLRLSCAASGRTFSGFAMGWFRQAPGKEREFVAAISWSGGSLLYVDSVKGRFTISRDNAKNTVHLQMNSLKPGDTAVYYCAAMVGPPPRSLDYGLGNHYEYDYWGQGTQVTVSS
notes: Anti-EGFR Nanobody; tag not described; also called Nanobody family X; Type C Nanobody
Regarding B4, in test [3], the binding result is “binds”.

B5: PMP7E12 (VHH)
VHH: EVQLVESGGGLVQAGGSLRLSCTASGRTFENNAMAWFRQAAGKEREFVAGFSGSGGATYYAHSVEGRFTISRDNAKNTVDLQMNSLSLEDTAVYLCAARRKSGEVVFTIPARYDYWGQGTQVTVSS
notes: Anti-EGFR Nanobody
In test [1], B5 registered a koff not above 0.0017 s⁻¹.

B6: 27-10-E8 (VHH)
VHH: EVQLVESGGGLVQAGGSLRLSCAASGRTFSTYTMAWFRQAPGKEREFVQGISRSDGGTYDADSVKGRFTISRDNAKNTVYLQMNSLKPEDTAVYFCAAASVKLVYVNPNRYSYWGQGTQVTVSS
notes: Anti-EGFR Nanobody, tested as periplasmic extract or IMAC purified protein; tag not described; also called Type A Nanobody
In turn, B6 gave a koff in test [1] not above 0.0017 s⁻¹.
